Source: IntAct's records for PubMed 26308901

B1: Phytosulfokine receptor 1 (Daucus carota), Q8LPB4 (parent)
chain: MGVLRVYVILILVGFCVQIVVVNSQNLTCNSNDLKALEGFMRGLESSIDGWKWNESSSFSSNCCDWVGISCKSSVSLGLDDVNESGRVVELELGRRKLSGKLSESVAKLDQLKVLNLTHNSLSGSIAASLLNLSNLEVLDLSSNDFSGLFPSLINLPSLRVLNVYENSFHGLIPASLCNNLPRIREIDLAMNYFDGSIPVGIGNCSSVEYLGLASNNLSGSIPQELFQLSNLSVLALQNNRLSGALSSKLGKLSNLGRLDISSNKFSGKIPDVFLELNKLWYFSAQSNLFNGEMPRSLSNSRSISLLSLRNNTLSGQIYLNCSAMTNLTSLDLASNSFSGSIPSNLPNCLRLKTINFAKIKFIAQIPESFKNFQSLTSLSFSNSSIQNISSALEILQHCQNLKTLVLTLNFQKEELPSVPSLQFKNLKVLIIASCQLRGTVPQWLSNSPSLQLLDLSWNQLSGTIPPWLGSLNSLFYLDLSNNTFIGEIPHSLTSLQSLVSKENAVEEPSPDFPFFKKKNTNAGGLQYNQPSSFPPMIDLSYNSLNGSIWPEFGDLRQLHVLNLKNNNLSGNIPANLSGMTSLEVLDLSHNNLSGNIPPSLVKLSFLSTFSVAYNKLSGPIPTGVQFQTFPNSSFEGNQGLCGEHASPCHITDQSPHGSAVKSKKNIRKIVAVAVGTGLGTVFLLTVTLLIILRTTSRGEVDPEKKADADEIELGSRSVVLFHNKDSNNELSLDDILKSTSSFNQANIIGCGGFGLVYKATLPDGTKVAIKRLSGDTGQMDREFQAEVETLSRAQHPNLVHLLGYCNYKNDKLLIYSYMDNGSLDYWLHEKVDGPPSLDWKTRLRIARGAAEGLAYLHQSCEPHILHRDIKSSNILLSDTFVAHLADFGLARLILPYDTHVTTDLVGTLGYIPPEYGQASVATYKGDVYSFGVVLLELLTGRRPMDVCKPRGSRDLISWVLQMKTEKRESEIFDPFIYDKDHAEEMLLVLEIACRCLGENPKTRPTTQQLVSWLENIDVSS
partner: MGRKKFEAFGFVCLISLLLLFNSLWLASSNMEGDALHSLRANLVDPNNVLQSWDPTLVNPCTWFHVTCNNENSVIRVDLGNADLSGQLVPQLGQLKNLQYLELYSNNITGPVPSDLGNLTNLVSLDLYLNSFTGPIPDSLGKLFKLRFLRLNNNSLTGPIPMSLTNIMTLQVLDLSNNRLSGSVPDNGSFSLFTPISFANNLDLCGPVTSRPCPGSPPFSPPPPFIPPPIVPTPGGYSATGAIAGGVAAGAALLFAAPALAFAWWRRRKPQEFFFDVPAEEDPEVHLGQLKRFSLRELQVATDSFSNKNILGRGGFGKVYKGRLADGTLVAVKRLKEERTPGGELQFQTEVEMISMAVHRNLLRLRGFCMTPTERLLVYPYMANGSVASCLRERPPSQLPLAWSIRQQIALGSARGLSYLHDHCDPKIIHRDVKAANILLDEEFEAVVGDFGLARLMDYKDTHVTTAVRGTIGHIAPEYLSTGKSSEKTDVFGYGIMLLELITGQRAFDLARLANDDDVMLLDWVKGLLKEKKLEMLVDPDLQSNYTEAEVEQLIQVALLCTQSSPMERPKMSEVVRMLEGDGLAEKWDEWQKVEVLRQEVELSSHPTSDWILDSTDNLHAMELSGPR
B2: Somatic embryogenesis receptor kinase 2 (Arabidopsis thaliana (Mouse-ear cress)), Q9XIC7 (parent)
chain: B1 partner
partner: B1 chain

Variants of: B1
Details: with serk2_arath SERK2, Q9XIC7

| Variant | effect of a mutation on the interaction |
| --- | --- |
| F606D | disrupting interaction strength |
| T629Y | disrupting interaction strength |
| S608Y | disrupting interaction strength |

Variants of: B2
Details: with pskr1_dauca PSKR

| Variant | effect of a mutation on the interaction |
| --- | --- |
| T62Y | disrupting interaction strength |
